{"source": "patent US12454527B2", "about": "“Conjugate monomethyl auristatin E to obtain a composition for treatment of prostate cancer” (priority 2019, dated 2025)", "key": {"[1]": {"experiment": "Body weight of mice in lymphoid leukosis P388 model", "assay_type": "in vivo", "procedure": "Lymphoid Leukosis P388 (male mice BDF1)—observation was held for 30 days since the first product administration (the product administration was started 24 hours after revaccination) and it was administered 3 times intraperitoneally in a day.\n• 1. Group 1—tumor growth control (TGC) • 2. Group 2—placebo (diluent) • 3. Group 3—intraperitoneal Conjugate (I) administration in a dose of 0.5 mg/kg 3 times; • 4. Group 4—intraperitoneal Conjugate (I) administration in a dose of 1.0 mg/kg 3 times:\nExperimental animals of control group (TGC) were administered with 0.9% saline, the placebo group was injected with the diluent (DMSO+Haemodes) of similar volume. The antineoplastic activity was determined according to mice lifespan."}, "[2]": {"experiment": "Chronic toxicity study, intravenous once every 3 weeks, rabbits", "assay_type": "in vivo", "from_the_text": "Chronic toxicity study of Conjugate (1) product on Rats and rabbits.\n• 1. Conjugate (I). • 2. Solubilizer Pluronic F127—in the amount, five-fold greater than the conjugate amount by weight. • 3. Diluent—Haemodes infusion solution. • 4. Dimethyl sulfoxide—in the amount of 5% of the prepared volume.\nA 1 00 white ° inbred mature male rats about 2 months old with a body weight of 190-210 g and 60 sexually mature male rabbits of the Soviet Chinchilla breed about 2 months old with a body weight of […] were involved in the experiment.\nThe study design determined the intravenous administration of the test drugs once every 3 weeks for 3 months (a total of 4 injections) for the experiment of chronic toxicity determination. The local irritant effect of the products within intravenous administration will be studied together with the chronic toxicity study.\nEach animal received the intravenous injection of the test drug or the reference drug in a volume not exceeding the acceptable volume for a single injection of 2 mL for rats and 20 mL for rabbits. The products were replaced with a Pluronic solution with DMSO in Haemodes in the control group of animals. The duration of observation for laboratory animals was 4 weeks (intermediate stage).\nApparent signs of intoxication were evaluated daily. During the study, integral indicators of animal health were recorded (see Tables 15. 16, 17)."}, "[3]": {"conditions": "male rabbits, group 7, 81 μg/kg intravenously 1 time in 3 weeks"}, "[4]": {"conditions": "male rabbits, group 8, 102 μg/kg intravenously 1 time in 3 weeks"}}, "note": "Starred links: 1 amine or outer side, 2 acyl side, 3 side chain; linkers in the order of their positions; H or OH if unused. Non-standard residues stand in square brackets, D forms with d. Residues, ends and D or L forms follow the SMILES beside them. ξ: configuration not given here. *: point of attachment. GluureaLys(ε-3-ClBenzyl) = O=C(O)CC[C@H](NC(=O)N[C@@H](CCCCN(Cc1cccc(Cl)c1)*)C(=O)O)C(=O)O; Dolaproine = CO[C@@H]([C@@H]1CCCN1)[C@@H](C)C(=O)O; Dil = CC[C@H](C)[C@H](NC)[C@@H](CC(=O)O)OC; X1 = O=C(CCCc1cn(CCCN[*:1])nn1)[*:2]; PABC = O=C(OCc1ccc(N[*:1])cc1)[*:2]; X2 = C[C@@H](N*)[C@@H](O)c1ccccc1; Cit = NC(=O)NCCC[C@H](N)C(=O)O; Suc = O=C(CCC(=O)[*:2])[*:1]; NMeV = CN[C@H](C(=O)O)C(C)C; ξV = CC(C)C(N)C(=O)O; Ahx = NCCCCCC(=O)O"}
{"smiles": "CC[C@H](C)[C@@H]([C@@H](CC(=O)N1CCC[C@H]1[C@H](OC)[C@@H](C)C(=O)N[C@H](C)[C@@H](O)c1ccccc1)OC)N(C)C(=O)[C@@H](NC(=O)[C@H](C(C)C)N(C)C(=O)OCc1ccc(NC(=O)[C@H](CCCNC(N)=O)NC(=O)C(NC(=O)CCCc2cn(CCCNC(=O)[C@H](Cc3ccc(O)cc3)NC(=O)[C@H](Cc3ccccc3)NC(=O)CCC(=O)NCCCCCC(=O)N(CCCC[C@H](NC(=O)N[C@@H](CCC(=O)O)C(=O)O)C(=O)O)Cc3cccc(Cl)c3)nn2)C(C)C)cc1)C(C)C", "note": "(some centres unmarked) [Conjugate (I)] ({GluureaLys(ε-3-ClBenzyl)-Ahx-Suc}-FY[X1][ξV][Cit][PABC][NMeV]V[Dil][Dolaproine]-X2)", "values": [{"measurement": "Body weight of mice", "setting": "[1]; 0.5 mg/kg, day 0, in g (unit assumed)", "result": "19.9 ± 0.36"}, {"measurement": "Body weight of mice", "setting": "[1]; 0.5 mg/kg, day 2, in g (unit assumed)", "result": "19.2 ± 0.28"}, {"measurement": "Body weight of mice", "setting": "[1]; 0.5 mg/kg, day 4, in g (unit assumed)", "result": "19.2 ± 0.32"}, {"measurement": "Body weight of mice", "setting": "[1]; 1.0 mg/kg, day 0, in g (unit assumed)", "result": "19.7 ± 0.36"}, {"measurement": "Body weight of mice", "setting": "[1]; 1.0 mg/kg, day 2, in g (unit assumed)", "result": "19.7 ± 0.48"}, {"measurement": "Body weight of mice", "setting": "[1]; 1.0 mg/kg, day 4, in g (unit assumed)", "result": "19.7 ± 0.42"}, {"measurement": "Necropsy", "setting": "[2]; [3]", "result": "None"}, {"measurement": "Signs of intoxication", "setting": "[2]; [3]", "result": "No signs of intoxication"}, {"measurement": "Necropsy", "setting": "[2]; [4]", "result": "None"}, {"measurement": "Signs of intoxication", "setting": "[2]; [4]", "result": "No signs of intoxication"}, {"measurement": "Necropsy", "setting": "[2]; male rabbits, group 9, 122 μg/kg intravenously 1 time in 3 weeks", "result": "None"}, {"measurement": "Signs of intoxication: the intake of food and water", "setting": "[2]; male rabbits, group 9, 122 μg/kg, after administration", "result": "decreased."}, {"measurement": "Main observed toxic effect", "setting": "[2]; rabbits, chronic", "result": "decreased body weight gain"}, {"measurement": "Chronic toxicity (overall)", "setting": "[2]; rabbits, i.v. once every 3 weeks, intermediate stage 4 weeks", "result": "moderate toxicity"}]}
